Measured values as given in patent US20220290101A1.
Each block holds one binder with its values, some of them ahead of it.

Biological target: L1 (DV1-GV4) soluble heterodimeric γδ TCR antigen, leucine zipper (LZ) format (human)
Test: DELFIA affinity ranking with 100 nM biotinylated L1

Sequence of L1 (DV1-GV4) soluble heterodimeric γδ TCR antigen, leucine zipper (LZ) format (human) (main, as listed by the source): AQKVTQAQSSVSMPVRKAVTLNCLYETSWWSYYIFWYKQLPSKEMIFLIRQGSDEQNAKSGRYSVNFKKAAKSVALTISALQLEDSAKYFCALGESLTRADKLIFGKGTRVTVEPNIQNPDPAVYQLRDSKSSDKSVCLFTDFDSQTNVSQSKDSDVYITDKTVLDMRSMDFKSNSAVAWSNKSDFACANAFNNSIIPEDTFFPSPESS

B1: 1251_P02_C05 (scFv) (scFv)
scFv: EVQLLESGGGLVQPGGSLRLSCAASGFTFSSYAMSWVRQAPGKGLEWVSAISGGGGTTYSSDSVKGRFTISRDNSKNTLYLQMNSLRAEDTAVYYCARDSGVAFDIWGQGTLVTVSSGGGGSGGGGSGGGASDIQMTQSPSFLSASVGDRVTITCRASQNIRTWLAWYQQKPGRAPKLLIYDASSLESGVPSRFSGSGSGTDFTLTISSLQPEDFATYYCQQFKRYPPTFGLGTKVEIK
100 nM L1 (DELFIA signal) (fluorescence units): 65300

B2: 1245_P02_F07 (scFv) (scFv)
scFv: QVQLQQSGPGLVKPSQTLSLTCVISGDSVSSNSAAWNWIRQSPSRGLEWLGRTYYRSKWYNDYAVSVKSRITINPDTSKNQFSLQLNSVTPEDTAVYYCARDYYYSMDVWGQGTMVTVSSGGGGSGGGGSGGGASDIQMTQSPSTLSASVGDRVTITCRASQSISSWLAWYQQKPGKAPKLLIYDASSLESGVPLRFSGSGSGTEFTLTISSLQPDDFATYYCQQSHSHPPTFGPGTKVDIK
100 nM L1 (DELFIA signal) (fluorescence units): 10400

B3: 1245_P02_G04 (scFv) (scFv)
scFv: QVQLQQSGPGLVKPSQTLSLTCAISGDSVSSKSAAWNWIRQSPSRGLEWLGRTYYRSKWSTDYAASVKSRITINPDTSKNQLSLQLNSVTPEDTAVYYCARTWSGYVDVWGQGTLVTVSSGGGGSGGGGSGGGASDIQMTQSPPALSASVGDRVTITCRASQDINDWLAWYQHKPGKAPKLLIYDASSLESGVPSRFSGSGSGTEFTLTISSLQPDDFATYYCQQSYSTPQVTFGQGTRLEIK
100 nM L1 (DELFIA signal) (fluorescence units): 5900

B8: 1139_P01_E04 (scFv) (scFv)
scFv: QVQLQQSGPGLVKPSQTLSLTCAISGDSVSSNSAAWNWIRQSPSRGLEWLGRTYYRSKWYNDYAVSVRSRITINPDTSKNQFSLQLNSVTPEDTAVYYCARSWNDAFDIWGQGTTVTVSSGGGGSGGGGSGGGASDIVMTQSPSTLSASIGDRVTITCRAGQSISTWLAWYQQKPGKAPKLLIYDASSLESGVPLRFSGSGSGTDFTLTISSLQPEDFATYYCQQSYSTPLTFGGGTKVEIK
100 nM L1 (DELFIA signal) (fluorescence units): 23800

B9: 1252_P01_C08 (scFv) (scFv)
scFv: EVQLLESGGGLVQPGRSLRLSCAASGFTVSSNYMSWVRQAPGKGLEWVSVIYSGGSTYYADSVKGRFTISRDNSKNTLYLQMNSLRAEDTAVYYCASPIELGAFDIWGQGTLVTVSSGGGGSGGGGSGGGASSYELTQPPSVSVAPGKTARITCGGNNIGSQSVHWYQQKPGQAPMLVIYYDSDRPSGIPERFSGSNSGNTATLTISRVEAGDEADYYCQVWDSSSDHVVFGGGTKLTVL
100 nM L1 (DELFIA signal) (fluorescence units): 1980

Continued, values first:

100 nM L1 (DELFIA signal) (fluorescence units): 18400
B4: 1245_P01_G09 (scFv) (scFv)
scFv: QVQLQQSGPGLVKPSQTLSLTCAISGDSVSSNSAAWNWIRQSPSRGLEWLGRTYYGSKWYNEYALSVKSRIIINPDTSKNQFSLQLNSVTPEDTAVYYCARDYYYSMDVWGQGTLVTVSSGGGGSGGGGSGGGASDIVMTQSPSTLSASIGDRVTITCRAGQSISTWLAWYQQKPGKAPKLLIYDASSLESGVPLRFSGSGSGTEFTLAISSLQPDDFATYYCQQSYSTPVTFGQGTKVEIK

100 nM L1 (DELFIA signal) (fluorescence units): 163000
B5: 1245_P01_E07 (scFv) (scFv)
scFv: QVQLVESGGGLVKPGGSLRLSCAASGFTFSDYYMSWIRQAPGKGLEWVSYISSSGSTIYYADSVKGRFTISRDNAKNSLYLQMNSLRAEDTAVYYCARVDYADAFDIWGQGTLVTVSSGGGGSGGGGSGGGASDIQMTQSPSSLSASVGDRVTIACRAGQSIGTYLNWYQQKPGKAPKLLIYVASSLQSGVPSRFSGSGSGTEFTLTISSLQPEDFATYYCQQSYSTLLTFGRGTKVEIK

100 nM L1 (DELFIA signal) (fluorescence units): 137000
B6: 1141_P01_E01 (scFv) (scFv)
scFv: QVQLVQSGAEVKKPGESLKISCKGSGYSFTSYWIGWVRQMPGKGLEWMGIIYPGDSDTRYSPSFQGQVTISADKSISTAYLQWSSLKASDTAMYYCARHQVDTRTADYWGQGTLVTVSSGGGGSGGGGSGGGASQSALTQPASVSGSPGQSVTISCTGTRSDVGGYNYVSWYQHHPGKAPKLMIYEVSNRPSGVSNRFSGSKSGNTASLTISGLQAEDEADYYCSSYTSTSTLVFGGGTKLTVL

100 nM L1 (DELFIA signal) (fluorescence units): 17100
B7: 1251_P02_G10 (scFv) (scFv)
scFv: EVQLVESGGGLVQPGGSLRLSCAASGFTFSDYYMSWIRQAPGKGLEWVSYISSSGSTIYYADSVKGRFTISRDNAKNSLYLQMNSLRAEDTAVYYCARHSWNDAFDIWGRGTLVTVSSGGGGSGGGGSGGGASDIQMTQSPSSLSASVGDRVTITCRASQSISSHLNWYQQKPGKAPKLLIYAASSLQSGVPSRFSASGSGTDFTLTISSLQPEDFATYYCQQSYSTLLTFGGGTKVEIK
